In publication PMC11997214:

B1: B7H3 (4IgB7H3, CD276): N91/104/309/322Q (protein)
parent chain: MLRRRGSPGMGVHVGAALGALWFCLTGALEVQVPEDPVVALVGTDATLCCSFSPEPGFSLAQLNLIWQLTDTKQLVHSFAEGQDQGSAYANRTALFPDLLAQGNASLRLQRVRVADEGSFTCFVSIRDFGSAAVSLQVAAPYSKPSMTLEPNKDLRPGDTVTITCSSYQGYPEAEVFWQDGQGVPLTGNVTTSQMANEQGLFDVHSILRVVLGANGTYSCLVRNPVLQQDAHSSVTITPQRSPTGAVEVQVPEDPVVALVGTDATLRCSFSPEPGFSLAQLNLIWQLTDTKQLVHSFTEGRDQGSAYANRTALFPDLLAQGNASLRLQRVRVADEGSFTCFVSIRDFGSAAVSLQVAAPYSKPSMTLEPNKDLRPGDTVTITCSSYRGYPEAEVFWQDGQGVPLTGNVTTSQMANEQGLFDVHSVLRVVLGANGTYSCLVRNPVLQQDAHGSVTITGQPMTFPPEALWVTVGLSVCLIALLVALAFVCWRKIKQSCEEENAGAEDQDGEGEGSKTALQPLKHSDSKEDDGQEIA
B2: B7H3 (4IgB7H3, CD276): 8NQ (protein)
parent chain: B1 parent chain

Experiment: Flag IP, Ub blots after NMS-873 or CB-5083
Conditions: glycan lost; control: wild type

| Protein | other: total and K48-linked ubiquitination |
| --- | --- |
| B1 | increases |
| B2 | increases |
